Laboratory results taken from the Immune Epitope Database (IEDB).

Assays:
Assay in all cases: IEDB peptide-MHC binding, purified MHC/direct/fluorescence; filed as Kd, often an IC50 or EC50 that approximates it; ≥ and ≤ were set here for values at or beyond the usual limits of such assays
HLA-B*39:01 = details: source organism: Yellow fever virus
HLA-B*51:01 = target: HLA-B*51:01
HLA-B*40:01 = details: source organism: Yellow fever virus
HLA-A*31:01 = target: HLA-A*31:01
HLA-A*01:01 = details: source organism: dengue virus type 2
HLA-A*03:01 = details: source organism: Yellow fever virus
HLA-B*07:02 = details: source organism: Yellow fever virus
HLA-B*15:01 = details: source organism: dengue virus type 4
[1] = source organism: Yellow fever virus

CRTAFKPVL
Kd (HLA-B*39:01): 2060 nM

ERWFVRNPF
Kd (HLA-B*39:01): ≥ 20000 nM

FHERGYVKL
Kd (HLA-B*39:01): 35 nM

FHKRDMRLL
Kd (HLA-B*39:01): ≥ 20000 nM

FTMRLLSPV
Kd (HLA-B*51:01; source organism: dengue virus type 1): ≥ 20000 nM

GEAMDTISV
Kd (HLA-B*40:01): ≤ 1 nM | Kd (HLA-B*39:01): ≥ 20000 nM

IQYVIRAQL
Kd (HLA-B*39:01): 682 nM

KTWAYHGSY
Kd (HLA-A*31:01; source organism: dengue virus type 2): ≥ 20000 nM | Kd (HLA-A*01:01): ≥ 20000 nM

LTLKGTSYK
Kd (HLA-A*31:01; [1]): 518 nM | Kd (HLA-A*03:01): 104 nM

MPRSIGGPV
Kd (HLA-B*07:02): 5 nM | Kd (HLA-B*51:01; [1]): 858 nM

MVIFFMSPK
Kd (HLA-A*31:01; [1]): 1400 nM | Kd (HLA-A*03:01): 610 nM

PHAATIRVL
Kd (HLA-B*39:01): 960 nM

RADEINAIL
Kd (HLA-B*39:01): 156 nM

RMGERQLQK
Kd (HLA-A*31:01; [1]): 187 nM | Kd (HLA-A*03:01): 340 nM

RTWAYHGSY
Kd (HLA-A*31:01; source organism: dengue virus type 4): 37 nM | Kd (HLA-B*15:01): 12 nM

SSARYDVAL
Kd (HLA-B*39:01): 377 nM

TKDTNDNNL
Kd (HLA-B*39:01): 136 nM

VRGGMVAPL
Kd (HLA-B*39:01): 5370 nM
